Drawing on US20060068468A1 (ACCELERON PHARMA, published 2006), this text covers binding result and Kd for 14 molecules.

Experiment [1] addresses T1, GDF-11 (UniProt O95390 299-407).
T1 construct: also called Growth and Differentiation Factor-11; BMP11
T1 sequence (looked up): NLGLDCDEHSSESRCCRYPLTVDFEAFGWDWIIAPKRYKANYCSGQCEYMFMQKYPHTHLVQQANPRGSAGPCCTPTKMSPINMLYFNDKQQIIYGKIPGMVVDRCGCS
Briefly: BiaCore, ligand immobilized on CM5 chip. On the procedure:
(§1) GDF-11 or Activin A (“ActA”) were immobilized on a BiaCore CM5 chip using standard amine coupling procedure. The ActRIIB-Fc mutant or wild-type protein was loaded onto the system, and binding was measured.

For experiment [2], the target named is T2, Activin A (UniProt P08476 311-426).
T2 construct: also called ActA
T2 sequence (looked up): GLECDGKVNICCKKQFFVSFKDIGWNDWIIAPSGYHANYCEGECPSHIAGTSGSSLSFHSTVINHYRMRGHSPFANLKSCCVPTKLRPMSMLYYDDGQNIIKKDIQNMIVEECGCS
Briefly: BiaCore, ligand immobilized on CM5 chip. As to the method:
as §1

The target in experiment [3] is T1, GDF-11. The experiment is described as follows: BiaCore (SPR); ligand amine-coupled to CM5 chip, ActRIIB-Fc injected. As to the method:
as §1

B1: ActRIIB-Fc D80A (Fc fusion)
chain: SGRGEAETRECIYYNANWELERTNQSGLERCEGEQDKRLHCYASWANSSGTIELVKKGCWLADFNCYDRQECVATEENPQVYFCCCEGNFCNERFTHLPEAGGGTHTCPPCPAPELLGGPSVFLFPPKPKDTLMISRTPEVTCVVVDVSHEDPEVKFNWYVDGVEVHNAKTKPREEQYNSTYRVVSVLTVLHQDWLNGKEYKCKVSNKALPVPIEKTISKAKGQPREPQVYTLPPSREEMTKNQVSLTCLVKGFYPSDIAVEWESNGQPENNYKTTPPVLDSDGSFFLYSKLTVDKSRWQQGNVFSCSVMHEALHNHYTQKSLSLSPGK
notes: Mutation in the background ActRIIB-Fc
Consider B1, for which the binding result in experiment [1] and in experiment [2] was “no binding” throughout.

B2: ActRIIB-Fc WT (64R) (Fc fusion)
chain: SGRGEAETRECIYYNANWELERTNQSGLERCEGEQDKRLHCYASWRNSSGTIELVKKGCWLDDFNCYDRQECVATEENPQVYFCCCEGNFCNERFTHLPEAGGGTHTCPPCPAPELLGGPSVFLFPPKPKDTLMISRTPEVTCVVVDVSHEDPEVKFNWYVDGVEVHNAKTKPREEQYNSTYRVVSVLTVLHQDWLNGKEYKCKVSNKALPVPIEKTISKAKGQPREPQVYTLPPSREEMTKNQVSLTCLVKGFYPSDIAVEWESNGQPENNYKTTPPVLDSDGSFFLYSKLTVDKSRWQQGNVFSCSVMHEALHNHYTQKSLSLSPGK
notes: also called A64R
Regarding B2, binding in experiment [3] was put at a Kd of 86 nM.

B3: ActRIIB-Fc R56A (Fc fusion)
chain: SGRGEAETRECIYYNANWELERTNQSGLERCEGEQDKALHCYASWANSSGTIELVKKGCWLDDFNCYDRQECVATEENPQVYFCCCEGNFCNERFTHLPEAGGGTHTCPPCPAPELLGGPSVFLFPPKPKDTLMISRTPEVTCVVVDVSHEDPEVKFNWYVDGVEVHNAKTKPREEQYNSTYRVVSVLTVLHQDWLNGKEYKCKVSNKALPVPIEKTISKAKGQPREPQVYTLPPSREEMTKNQVSLTCLVKGFYPSDIAVEWESNGQPENNYKTTPPVLDSDGSFFLYSKLTVDKSRWQQGNVFSCSVMHEALHNHYTQKSLSLSPGK
notes: as for B1
With B3, the binding result in experiment [1] and in experiment [2] was “no binding” each time.

B4: ActRIIB-Fc F82A (Fc fusion)
chain: SGRGEAETRECIYYNANWELERTNQSGLERCEGEQDKRLHCYASWANSSGTIELVKKGCWLDDANCYDRQECVATEENPQVYFCCCEGNFCNERFTHLPEAGGGTHTCPPCPAPELLGGPSVFLFPPKPKDTLMISRTPEVTCVVVDVSHEDPEVKFNWYVDGVEVHNAKTKPREEQYNSTYRVVSVLTVLHQDWLNGKEYKCKVSNKALPVPIEKTISKAKGQPREPQVYTLPPSREEMTKNQVSLTCLVKGFYPSDIAVEWESNGQPENNYKTTPPVLDSDGSFFLYSKLTVDKSRWQQGNVFSCSVMHEALHNHYTQKSLSLSPGK
notes: as for B1
B4: in experiment [3], the binding result is listed as “binds”.

B5: ActRIIB-Fc D80K (Fc fusion)
chain: SGRGEAETRECIYYNANWELERTNQSGLERCEGEQDKRLHCYASWANSSGTIELVKKGCWLKDFNCYDRQECVATEENPQVYFCCCEGNFCNERFTHLPEAGGGTHTCPPCPAPELLGGPSVFLFPPKPKDTLMISRTPEVTCVVVDVSHEDPEVKFNWYVDGVEVHNAKTKPREEQYNSTYRVVSVLTVLHQDWLNGKEYKCKVSNKALPVPIEKTISKAKGQPREPQVYTLPPSREEMTKNQVSLTCLVKGFYPSDIAVEWESNGQPENNYKTTPPVLDSDGSFFLYSKLTVDKSRWQQGNVFSCSVMHEALHNHYTQKSLSLSPGK
notes: as for B1
Regarding B5, the binding result in experiment [1] and in experiment [2] was “no binding” throughout.

B6: ActRIIB-Fc E37A (Fc fusion)
chain: SGRGEAETRECIYYNANWALERTNQSGLERCEGEQDKRLHCYASWANSSGTIELVKKGCWLDDFNCYDRQECVATEENPQVYFCCCEGNFCNERFTHLPEAGGGTHTCPPCPAPELLGGPSVFLFPPKPKDTLMISRTPEVTCVVVDVSHEDPEVKFNWYVDGVEVHNAKTKPREEQYNSTYRVVSVLTVLHQDWLNGKEYKCKVSNKALPVPIEKTISKAKGQPREPQVYTLPPSREEMTKNQVSLTCLVKGFYPSDIAVEWESNGQPENNYKTTPPVLDSDGSFFLYSKLTVDKSRWQQGNVFSCSVMHEALHNHYTQKSLSLSPGK
notes: as for B1
Consider B6, for which the binding result in experiment [1] and in experiment [2] was “no binding” throughout.

B7: ActRIIB-Fc W78A (Fc fusion)
chain: SGRGEAETRECIYYNANWELERTNQSGLERCEGEQDKRLHCYASWANSSGTIELVKKGCALDDFNCYDRQECVATEENPQVYFCCCEGNFCNERFTHLPEAGGGTHTCPPCPAPELLGGPSVFLFPPKPKDTLMISRTPEVTCVVVDVSHEDPEVKFNWYVDGVEVHNAKTKPREEQYNSTYRVVSVLTVLHQDWLNGKEYKCKVSNKALPVPIEKTISKAKGQPREPQVYTLPPSREEMTKNQVSLTCLVKGFYPSDIAVEWESNGQPENNYKTTPPVLDSDGSFFLYSKLTVDKSRWQQGNVFSCSVMHEALHNHYTQKSLSLSPGK
notes: as for B1
B7: the binding result in experiment [1] and in experiment [2] was “no binding” throughout.

B8: ActRIIB-Fc D80R (Fc fusion)
chain: SGRGEAETRECIYYNANWELERTNQSGLERCEGEQDKRLHCYASWANSSGTIELVKKGCWLRDFNCYDRQECVATEENPQVYFCCCEGNFCNERFTHLPEAGGGTHTCPPCPAPELLGGPSVFLFPPKPKDTLMISRTPEVTCVVVDVSHEDPEVKFNWYVDGVEVHNAKTKPREEQYNSTYRVVSVLTVLHQDWLNGKEYKCKVSNKALPVPIEKTISKAKGQPREPQVYTLPPSREEMTKNQVSLTCLVKGFYPSDIAVEWESNGQPENNYKTTPPVLDSDGSFFLYSKLTVDKSRWQQGNVFSCSVMHEALHNHYTQKSLSLSPGK
notes: as for B1
As for B8, the binding result in experiment [1] and in experiment [2] was “no binding” in each case.

B9: ActRIIB-Fc D80N (Fc fusion)
chain: SGRGEAETRECIYYNANWELERTNQSGLERCEGEQDKRLHCYASWANSSGTIELVKKGCWLNDFNCYDRQECVATEENPQVYFCCCEGNFCNERFTHLPEAGGGTHTCPPCPAPELLGGPSVFLFPPKPKDTLMISRTPEVTCVVVDVSHEDPEVKFNWYVDGVEVHNAKTKPREEQYNSTYRVVSVLTVLHQDWLNGKEYKCKVSNKALPVPIEKTISKAKGQPREPQVYTLPPSREEMTKNQVSLTCLVKGFYPSDIAVEWESNGQPENNYKTTPPVLDSDGSFFLYSKLTVDKSRWQQGNVFSCSVMHEALHNHYTQKSLSLSPGK
notes: as for B1
Regarding B9, the binding result in experiment [1] and in experiment [2] was “no binding” each time.

B10: ActRIIB-Fc D80F (Fc fusion)
chain: SGRGEAETRECIYYNANWELERTNQSGLERCEGEQDKRLHCYASWANSSGTIELVKKGCWLFDFNCYDRQECVATEENPQVYFCCCEGNFCNERFTHLPEAGGGTHTCPPCPAPELLGGPSVFLFPPKPKDTLMISRTPEVTCVVVDVSHEDPEVKFNWYVDGVEVHNAKTKPREEQYNSTYRVVSVLTVLHQDWLNGKEYKCKVSNKALPVPIEKTISKAKGQPREPQVYTLPPSREEMTKNQVSLTCLVKGFYPSDIAVEWESNGQPENNYKTTPPVLDSDGSFFLYSKLTVDKSRWQQGNVFSCSVMHEALHNHYTQKSLSLSPGK
notes: as for B1
With B10, the binding result in experiment [1] and in experiment [2] was “no binding” in each case.

B11: ActRIIB-Fc D80G (Fc fusion)
chain: SGRGEAETRECIYYNANWELERTNQSGLERCEGEQDKRLHCYASWANSSGTIELVKKGCWLGDFNCYDRQECVATEENPQVYFCCCEGNFCNERFTHLPEAGGGTHTCPPCPAPELLGGPSVFLFPPKPKDTLMISRTPEVTCVVVDVSHEDPEVKFNWYVDGVEVHNAKTKPREEQYNSTYRVVSVLTVLHQDWLNGKEYKCKVSNKALPVPIEKTISKAKGQPREPQVYTLPPSREEMTKNQVSLTCLVKGFYPSDIAVEWESNGQPENNYKTTPPVLDSDGSFFLYSKLTVDKSRWQQGNVFSCSVMHEALHNHYTQKSLSLSPGK
notes: as for B1
With B11, the binding result in experiment [1] and in experiment [2] was “no binding” throughout.

B12: ActRIIB-Fc D80M (Fc fusion)
chain: SGRGEAETRECIYYNANWELERTNQSGLERCEGEQDKRLHCYASWANSSGTIELVKKGCWLMDFNCYDRQECVATEENPQVYFCCCEGNFCNERFTHLPEAGGGTHTCPPCPAPELLGGPSVFLFPPKPKDTLMISRTPEVTCVVVDVSHEDPEVKFNWYVDGVEVHNAKTKPREEQYNSTYRVVSVLTVLHQDWLNGKEYKCKVSNKALPVPIEKTISKAKGQPREPQVYTLPPSREEMTKNQVSLTCLVKGFYPSDIAVEWESNGQPENNYKTTPPVLDSDGSFFLYSKLTVDKSRWQQGNVFSCSVMHEALHNHYTQKSLSLSPGK
notes: as for B1
In the case of B12, the binding result in experiment [1] and in experiment [2] was “no binding” in each case.

B13: ActRIIB-Fc D80I (Fc fusion)
chain: SGRGEAETRECIYYNANWELERTNQSGLERCEGEQDKRLHCYASWANSSGTIELVKKGCWLIDFNCYDRQECVATEENPQVYFCCCEGNFCNERFTHLPEAGGGTHTCPPCPAPELLGGPSVFLFPPKPKDTLMISRTPEVTCVVVDVSHEDPEVKFNWYVDGVEVHNAKTKPREEQYNSTYRVVSVLTVLHQDWLNGKEYKCKVSNKALPVPIEKTISKAKGQPREPQVYTLPPSREEMTKNQVSLTCLVKGFYPSDIAVEWESNGQPENNYKTTPPVLDSDGSFFLYSKLTVDKSRWQQGNVFSCSVMHEALHNHYTQKSLSLSPGK
notes: as for B1
Take B13: the binding result in experiment [3] was “binds”; in experiment [2] it was “no binding”.

B14: ActRIIB-Fc K55A (Fc fusion)
chain: SGRGEAETRECIYYNANWELERTNQSGLERCEGEQDARLHCYASWANSSGTIELVKKGCWLDDFNCYDRQECVATEENPQVYFCCCEGNFCNERFTHLPEAGGGTHTCPPCPAPELLGGPSVFLFPPKPKDTLMISRTPEVTCVVVDVSHEDPEVKFNWYVDGVEVHNAKTKPREEQYNSTYRVVSVLTVLHQDWLNGKEYKCKVSNKALPVPIEKTISKAKGQPREPQVYTLPPSREEMTKNQVSLTCLVKGFYPSDIAVEWESNGQPENNYKTTPPVLDSDGSFFLYSKLTVDKSRWQQGNVFSCSVMHEALHNHYTQKSLSLSPGK
notes: as for B1
Take B14: the binding result in experiment [1] was “no binding”.
